The assay deals with MYC(352–437):MAX(22–102) heterodimer (human) (UniProt P61244). The experiment in a line: NMR titration.

Usually Kd stands for a measure of binding affinity in units of concentration.

Sequence of MYC(352–437):MAX(22–102) heterodimer (human) (P61244 whole entry, looked up, tested part not stated, one chain of several): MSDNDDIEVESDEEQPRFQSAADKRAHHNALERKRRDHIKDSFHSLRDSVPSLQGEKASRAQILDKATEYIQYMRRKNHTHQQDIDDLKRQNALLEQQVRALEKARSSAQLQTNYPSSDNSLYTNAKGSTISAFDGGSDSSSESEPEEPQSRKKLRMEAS

In turn, MYC(11–34), Mb0 peptide gave a Kd of 7 µM.

The record behind these values is doi:10.1101/2023.06.21.545551.
